Data as given in the NTF2 design screens of Basanta et al. (2020).

assay: protease stability score; higher = more stable; yeast display proteolysis, trypsin and chymotrypsin;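 also: log10 excess protease needed over predicted unfolded state with 0 meaning unfolded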

Sequence	protease stability score
DEDIRRHVKEFIEALRTGNEDQLRTLADKNVRFEYGDKEIHGRETYAKHVKKLKEESSIEIKDYKVTAQGNTVSAKIRQVVNHNGKPQHHVVILQAVFHNGKLKEMRTKDDG	-0.26
DEKQAKKVLKQMVKAVFNNDEELLKKLGKEDVEVQFMDTKYKGPDQLKKILEQYKRYGIEFHIKKTKVEGDKMQVHAQVHLADNTADVTAEYQADNGKVDHTRVQFSDTAKEVFKKG	-0.003
DEQKDEEIRRVIENNDWTEVKELADENVKASVGDKRYHGREEMEKFWKIVHDRADHIEYQDIHVHNGQFNAQVVINVNGQELDVQITMRAENGKITNMSIHATSEEVKERIKEMFS	0.73
EEHQQKLIEEVLKAMDSGDEDRIKELVDPNAEFHVGDKTWHGMQDWARHVREEVEQIDFTWVNMEIRVKNGTVIMKARFEETRDGQPRTQNVNLRARVHNGRLTSMENDQHG	0.375
DEDLSRNFHQFIEALKQNDTDRMKELIDPNARMRYGDKQLHGRENILNYWKKLNDQARVDLDLKSVRNDENHIRYNYKMRVHVNGRPVEDTATAEIRATNGRIVDIYIDFDPEKLRQIES	2.34
DSEDLVRKFITEWEQAVQQGDEKQLQELMDEDAHVSVGDTKLHGREDIARELAEQIRHADHVQFRIESLSVHGDHVNLNQKVRYKHNGKTDSSRYRLQAIAHGDKVTLKSFHDG	-0.28
DREMLKDVKRLLEVINKGNEDEMRKMVDPNAKFVIGDKEITGREEFAKQMKRHKDEIRIDIKVKHLTAKGNRATVRATATRDHNGQPQSFKVTMRVTFSNGKVKKVHYDYTK	0.065
DEHDAAKRAEEAVRRANSGDEKDALRLIDPNATVQVGDKNYHGREQVRRVVEELTERFDHIQFKHVSLQGNRVTARADATHNGRTEKMIFIVRAHNGRVKSWKIESS	-0.093
DEKKLKELAEELVKADRTGNPDMIKKLGKPDVEFHVANVTMHGSEQVYKYYEKVQRQGNEVHIKRQEVRGDHVEVHYTVKVGGTEVEVTMRLHAKDHKVDKAEAHFNKEYLDHVKKG	0.413
DEKKVEKVVREALKAMINGDKDKVRKLLKPDVQFHAGDVEMHGVDQVVKYYEKIKRQGVEMHIKEVKVTGNEAEVKYDLRADGTEATVKAKVVVENEKVDHVTAELTKTYDDLVKKS	-0.107
DDHANRVVEDVMQAWQDNDEDRLKELLDPNVKVEYGDRRVEGRDEAVREWVEQFRQSTIEYEIKSVNNSGDKVQINMDMRFESNGHPDENRVRLEASAHNGKIRELNFHTDQ	0.589
DQEVAETMMERWQKAVQKGDPKEVQEVYDPNVTWKDVDEEHQGKEQVVKQMRKVQKQGIEFQIRRAEVEGDRAQAVYDVKLGNLTVTFTVEMTVRGGRVQEVRVEMDEEAKKLVKKG	0.136
DEEDLERMQDFMRAINKGDEDRLTKLVDENVHWVVGDKRVHGREQLRKEVDRRREKMSIKFDRVDAHADNGHAVVNIEYNVKHNGQPTSNFVRVQAEATNGKIKEVVVQEDK	-0.279
DEENMEVLEKVLDAMRTGDKKKVRDNLDKDARIEIGDHVLNGREEFAKWVVQIKKEIKVQINIQSVDVSNGRVRVHAQVEFRVNGQPQQYTIHIVAEIHNGHIKTLRMSFDDDQQRKFES	0.924
DEEELSEVANNMERILREGDPDKARSLADENAKAHIGDKKYHGREQIREMIHRMRTRADKVTVNELRITNGVIKIVAEFNVNGRNIEIVVHIRVNNGKISEVNFEVRDPDQYKEIYS	0.386
DEDQARLAIRFMEAWLEGNEDELKNQADPNAHFQVGDKHVTGMDEAAKELKTQLTEIRWDYKSVRIDTEEGRANLDMTVRMEVNGKPVEHSQKIEVERHNGQLSVIDQQFDNDTWDEVKS	-0.393
DEKRLREIATRIVDALKTNNPEDFQKQLDEDAEVSIGDKTVRGQKQIVKMMDEFNSRVDEIDFKSYTAEGNQVVVNAVFNHNGRQQHLHFVFVFHNGKAKTVKAESS	1.12
DEEKVHKQAHDYRTALQRGDPDRAAHLIDKHARIRVGDHTVNGRTQFKKMMEQLHTRIDKIEFKDVDVQGNKVNINIVVEVNGRRVEVTVDLDVQGDRVKQAVLTFRDPDNAKQMLG	-0.111

Sequence	protease stability score
DDQEVKKLAHEVQKILEHGDPDQFADLFDKDARMTVGDKDLHGRERIRELAQRQQDRIDHVQLEEYQVHNGRVVLKMRVNVNGHDETINMTLHQRNGKVKEFTQQSR	0.071
DEDQAKEQVDNARKVINQGNFSEAVKTADPNVKAAYGEKRLEGRQVLHTYQEVFQRRVDHVHVRRVDLKGEKATIKAELTINGRTTTMRMVVEVSNGRLKNFYVKYK	0.145
DDEHFDHLRKVLKTGDFERLNQLMDPNASADIGDKRYHGRESLEEMFRKLHTQIDHIEFKSMDLQGNKLKYTLVMTFNGREVTVTVVVEVQNGHIKRISIQARNESDREKLKHALD	1.46
DTENEKLQRRFMKALKTNDPHRAREMADENAKVQVGDKRIHGMQTVVEDLEREWREQRNDVKVRSVSNEGNKVNMDATMKVEHNGKPKHFNVVYRATVHNGRIHELRVERDG	0.088
DEEEQHKRAREYMQMFEDNDEKNLMHMADENARLVVGDKTYRGKEELSKQVREQKKRVDHNQVHSVRLHNGRVVIDVTLHHNGHREKRIIRVQLRNGRIKSIVYESG	0.037
DETKLMTELAEKLNRVIQKNNPDEARKLMDPNARQQVGDTRYHGNEQLAEYMKDMHERYDHVEVDVKDVNVSGDHATLEAKVHFRHNGKNTTINQNIVATIHNGKVVLKQVTSK	0.465
DEEEAHELLKKVLHYTVKGNVDELRKFVKPDLKYVLGDQEHQGSQVADQVEKEIRRQGTRLEVEKAEVKGDKAELQYRFTVAGKTFTLHVRVRAKDHRVDEWKVEMTDDVKEYQKKG	0.391
DRREAHKRAQEMVDNFRDNDKDRIVELADKDVHARIGDKRLHGREELATFLVELARRADRVEVKSIHVQGEQIEMDMQMTVDGRERTFTLRMTYHNGKLKHLEIDPDDLRKIES	0.987
DEDKKKHDLIHTFLTLQHNGDFKQLARMFDPNAKVRVGDKDIRGREQIEKMFEKVRESVDRVSVSLTHMDNHGDKVRMEARVTQHVNGRNHDFTITITFRQVGDKVRASHQSVS	0.584
DDHDRLRKFFETLLKNYQHNNEEHATKMADKDARFDVGDKTVNGNKQNAKEMAERVRESDHYHAKIQSYRVEGDKAHFQFVASVVHNGRERHFKVQMELKLHNGSLKIVRLRNS	0.966
DSDLVRKMKKFEENRRTGNEHEVDKMIDPNAKLQVGDKTIHGRERQRDYMRELKNSARLDLKIDRVHDQPGRVVATFILKVNINGRPDTIRVKLVIQWHNGEIQRAELRVPEEWMDRFKQ	0.642
DTDDNRKAAENILTAIQSNDPDERQKNADENVKVNVGDNRISGRENMHEFMKRVWEDVDKITIRSYTFKGDKMTADIHLNFNGQTAKLNVDVNIHNGKAQEVSMDPKADRVVRT	0.47
EHEQSKLMEHLLRIVETGDDDEFRKNADPNVKFVYGDKEYDGREEAAKALREIKTELRFQLNDVEIRVENGVIEINYDFTANHNGRPQRRTQRATAEYDNGKLKSWSVRDDG	-0.172
DDDAQRIAEDIQNALRKGDPERLNHLVDKNVKFVIGDKTIHGREDAAKQWHTMNRQMRIEVEMKHWDQQGNEVTIVARFVYEHNGRPETKRITRTITFHNGRAKEVVQKDDS	0.09
DEEIEDMIRKLIHAIRSGDEKKIKDNFDKDVDVDVGDKTLHGREHLTKRIAETRRQLKVRITSLHVHVRGEQVRVQVTMERTVNGRPQRHHNVFELQVHNGRVKRVSVKSDG	1.08
DEEAQEVYHRLRKVLENNNPKEFEENVDKDVRFNIGDKRIHGREQASKDWKSRMEEQHRKITRVENQSHGNEFEVRAKVNYDHNGQPRQQDLSAHVVAENGKLKMATYEVRK	0.018
DESDVERLTEIMEQNDFDQWVDQADKDAELVVGDKTLKGRETIQRWLKILSERVDHVSIKHIRNNGEEVDVKMTMIINGHRFEFVVNLTVHNGKITRFNFNFRDPDQLRRLHDQMS	1.25
DEEALKVLKEWIKAVETGDEERIKELVDKDVTVQVGDKVIRGREQVAKTVRKEREEMRVEINFDRLHADGDRVSAEFKVVEETNGRPNTKKQRMSARVHNGKFKSMEIQDDG	0.205
